Results from US20260151499A1 (TSINGHUA UNIVERSITY, published 2026).
Numbering of substitutions follows the chain as printed.

T1: CD73 protein (UniProt P21589 27-549)
T1 sequence (looked up): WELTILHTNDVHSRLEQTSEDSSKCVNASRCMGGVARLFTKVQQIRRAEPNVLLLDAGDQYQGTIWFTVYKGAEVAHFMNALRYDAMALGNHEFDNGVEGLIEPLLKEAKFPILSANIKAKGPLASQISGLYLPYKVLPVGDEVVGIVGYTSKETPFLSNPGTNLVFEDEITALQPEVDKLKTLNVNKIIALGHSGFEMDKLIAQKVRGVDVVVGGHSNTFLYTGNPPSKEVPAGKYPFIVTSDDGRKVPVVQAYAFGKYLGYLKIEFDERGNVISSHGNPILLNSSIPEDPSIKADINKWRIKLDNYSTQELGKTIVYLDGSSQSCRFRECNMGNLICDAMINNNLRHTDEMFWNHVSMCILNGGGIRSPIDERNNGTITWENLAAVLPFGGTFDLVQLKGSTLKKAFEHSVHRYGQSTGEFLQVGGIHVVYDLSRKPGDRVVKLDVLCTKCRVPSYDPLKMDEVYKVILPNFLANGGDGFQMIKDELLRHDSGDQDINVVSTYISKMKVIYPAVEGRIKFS

B1: ABN3-2G-BN3 (antibody, V domains shown)
VH: EVQLVESGGGLVQPGGSLRLSCAASGITFGSYTMSWVRQAPGKGLEWIGTVHYTGKTFYSPSLKSRVTISADTSKNTAYLQMNSLRAEDTAVYYCARGRDFGEPPYVRAFDIWGQGTLVTVSS
VL: DIQMTQSPSSLSASVGDRVTITCQASHDISKYLNWYQQKPGKAPKLLIYDASNLETGVPSRFSGSRSGTDFTLTISSLQPEDFATYYCQQXYTTPPTFGQGTKLEI
modifications: not fully specified; position marked * in QQ*YTTPPT (light chain residue 91): unnatural amino acid (UAA) with azide, conjugated to BN3 (PSB12379-PEG3-DBCO)
notes: also called ABN3-2G Ab-BN3
B2: 10A7-BN3 (antibody, V domains shown)
VH: EVQLVESGGGLVQPGGSLRLSCAASGFAFSSYSMSWVRQAPGKGLEWIGSIYYSGSTYYNPSLKSRVTISADTSKNTAYLQMNSLRAEDTAVYYCARNSGFETLDYWGQGTLVTVSS
VL: DIQMTQSPSSLSASVGDRVTITCRASQGISRWLAWYQQKPGKAPNLLIYGASTLQSGVPPRFSGSRSGTDFTLTISSLQPEDFATYYCQQXYTTPPTFGQGTKLEI
modifications: position marked * in QQ*YTTPPT (light chain residue 91): unnatural amino acid (UAA) with azide, conjugated to BN3 (PSB12379-PEG3-DBCO)
notes: also called 10A7 Ab-BN3
B3: 10A7-Fab-BN3 (Fab, V domains shown)
VH: B2 VH
VL: B2 VL
modifications: position marked * in QQ*YTTPPT (light chain residue 91): unnatural amino acid (UAA) with azide, conjugated to BN3 (PSB12379-PEG3-DBCO)
B4: 14E6-PEG3-ASF (antibody, V domains shown)
VH: EVQLVESGGGLVQPGGSLRLSCAASGFTFSNFAMHWVRQAPGKGLEYVSAISGGNGGGTYYADSAKGRFTISADTSKNTAYLQMNSLRAEDTAVYYCAREGNYCLDYWGQGTLVTVSS
VL: B2 VL with G28P, R31D, N45K, L46S, G50D, S52Y, T53N
modifications: position marked * in QQ*YTTPPT (light chain residue 91): unnatural amino acid (UAA) with azide, conjugated to ASF-PEG3-DBCO
B5: ABN3-2B-BN3 (antibody, V domains shown)
VH: EVQLVESGGGLVQPGGSLRLSCAASGFTFSSYWMHWVRQAPGKGLEWVSAVSGSGDSTYYADSVKGRFTISADTSKNTAYLQMNSLRAEDTAVYYCAREGDWGLDYWGQGTLVTVSS
VL: B1 VL with Q24R, H27Q, D28G, S30N, K31N, N34A
modifications: not fully specified; position marked * in QQ*YTTPPT (light chain residue 91): unnatural amino acid (UAA) with azide, conjugated to BN3 (PSB12379-PEG3-DBCO)
notes: also called ABN3-2B Ab-BN3; ABN-2B
B6: 10D8-BN3 (antibody, V domains shown)
VH: EVQLVESGGGLVQPGGSLRLSCAASGFTFSTYAIHWVRQAPGKGLEWVSSISGSGGGGGTYYADSVKGRFTISADTSKNTAYLQMNSLRAEDTAVYYCARDRGFLQFDYWGQGTLVTVSS
VL: B1 VL with Q24R, H27Q, D28S, K31S, Y32W, N34A, A51V, L54V, E55Q
modifications: position marked * in QQ*YTTPPT (light chain residue 91): unnatural amino acid (UAA) with azide, conjugated to BN3 (PSB12379-PEG3-DBCO)
notes: also called 10D8 Ab-BN3
B7: 14H4-PEG3-ASF (antibody, V domains shown)
VH: EVQLVESGGGLVQPGGSLRLSCAASGFSFSKFWMHWVRQAPGKGLEWVAFMAHDESNKNYADSVKGRFTISADTSKNTAYLQMNSLRAEDTAVYYCARDKVCNTFDIWGQGTLVTVSS
VL: B1 VL with Q24R, H27Q, D28S, K31S, Y32D, D50R, S52T, N53F, T56S
modifications: position marked * in QQ*YTTPPT (light chain residue 91): unnatural amino acid (UAA) with azide, conjugated to ASF-PEG3-DBCO

What was measured:
CD73 protein [1] = target: T1, CD73 protein; assay: cell-based or functional assay
CD73 protein [2] = target: T1, CD73 protein; assay: Octet BLI; Ab-BN3 on protein A sensors, CD73 in solution
CD73 protein [3] = target: T1, CD73 protein; assay: cell-based or functional assay; remark: listed apart in the source
NaV1.2 = NaV1.2 (UniProt Q99250 1-2005); assay: cell-based or functional assay
Sequence of NaV1.2 (Q99250 whole entry): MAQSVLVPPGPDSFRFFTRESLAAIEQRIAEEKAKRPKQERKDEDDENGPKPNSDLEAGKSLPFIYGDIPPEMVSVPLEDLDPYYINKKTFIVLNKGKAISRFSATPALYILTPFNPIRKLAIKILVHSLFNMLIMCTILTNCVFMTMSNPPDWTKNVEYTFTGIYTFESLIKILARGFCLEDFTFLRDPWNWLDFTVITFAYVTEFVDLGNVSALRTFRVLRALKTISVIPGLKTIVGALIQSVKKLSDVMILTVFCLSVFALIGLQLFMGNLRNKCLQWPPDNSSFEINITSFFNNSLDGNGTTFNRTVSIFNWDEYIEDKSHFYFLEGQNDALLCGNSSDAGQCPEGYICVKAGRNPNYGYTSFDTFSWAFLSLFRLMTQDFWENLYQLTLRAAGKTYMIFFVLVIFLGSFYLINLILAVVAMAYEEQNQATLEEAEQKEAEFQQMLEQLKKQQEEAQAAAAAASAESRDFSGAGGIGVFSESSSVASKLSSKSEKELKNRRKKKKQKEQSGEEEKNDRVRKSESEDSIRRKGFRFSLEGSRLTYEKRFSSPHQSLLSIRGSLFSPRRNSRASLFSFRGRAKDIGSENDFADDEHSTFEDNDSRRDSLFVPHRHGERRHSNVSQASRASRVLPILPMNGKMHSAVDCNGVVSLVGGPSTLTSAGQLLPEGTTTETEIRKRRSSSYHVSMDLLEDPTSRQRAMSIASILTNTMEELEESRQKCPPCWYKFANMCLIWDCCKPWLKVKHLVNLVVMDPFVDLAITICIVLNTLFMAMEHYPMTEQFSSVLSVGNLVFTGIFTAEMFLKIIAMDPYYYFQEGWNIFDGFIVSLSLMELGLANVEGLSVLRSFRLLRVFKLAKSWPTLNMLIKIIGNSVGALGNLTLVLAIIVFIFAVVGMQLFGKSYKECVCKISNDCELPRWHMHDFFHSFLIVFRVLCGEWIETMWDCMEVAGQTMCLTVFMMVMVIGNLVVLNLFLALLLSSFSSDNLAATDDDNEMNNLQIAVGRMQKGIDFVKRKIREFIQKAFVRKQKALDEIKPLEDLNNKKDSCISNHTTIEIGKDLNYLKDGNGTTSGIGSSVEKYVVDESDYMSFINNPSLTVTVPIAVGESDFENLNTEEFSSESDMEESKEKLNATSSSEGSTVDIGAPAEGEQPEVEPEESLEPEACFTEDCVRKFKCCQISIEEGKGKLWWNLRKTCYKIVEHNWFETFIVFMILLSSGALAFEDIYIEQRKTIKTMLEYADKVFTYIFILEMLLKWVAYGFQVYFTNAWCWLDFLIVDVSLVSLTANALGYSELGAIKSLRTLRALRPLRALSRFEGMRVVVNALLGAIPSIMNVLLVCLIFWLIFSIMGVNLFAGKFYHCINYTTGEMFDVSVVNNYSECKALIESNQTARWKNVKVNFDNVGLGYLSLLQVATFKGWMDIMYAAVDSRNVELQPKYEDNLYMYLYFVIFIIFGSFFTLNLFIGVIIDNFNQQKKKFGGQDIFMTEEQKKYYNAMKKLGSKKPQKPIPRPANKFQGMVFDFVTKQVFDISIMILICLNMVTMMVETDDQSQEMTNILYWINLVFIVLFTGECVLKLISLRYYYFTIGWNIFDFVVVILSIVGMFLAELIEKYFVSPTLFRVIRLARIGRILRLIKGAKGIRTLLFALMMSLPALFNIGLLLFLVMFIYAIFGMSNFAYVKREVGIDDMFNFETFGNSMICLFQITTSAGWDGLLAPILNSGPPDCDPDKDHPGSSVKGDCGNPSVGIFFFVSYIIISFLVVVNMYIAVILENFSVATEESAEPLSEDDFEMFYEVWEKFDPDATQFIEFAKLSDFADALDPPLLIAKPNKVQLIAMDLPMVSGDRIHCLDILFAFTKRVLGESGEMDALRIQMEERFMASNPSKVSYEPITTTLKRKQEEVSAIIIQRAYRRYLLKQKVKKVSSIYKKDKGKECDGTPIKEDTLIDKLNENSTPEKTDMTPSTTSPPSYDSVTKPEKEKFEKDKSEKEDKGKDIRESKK

NaV1.7 = NaV1.7 (UniProt Q15858 1-1988); assay: cell-based or functional assay
Sequence of NaV1.7 (Q15858 whole entry): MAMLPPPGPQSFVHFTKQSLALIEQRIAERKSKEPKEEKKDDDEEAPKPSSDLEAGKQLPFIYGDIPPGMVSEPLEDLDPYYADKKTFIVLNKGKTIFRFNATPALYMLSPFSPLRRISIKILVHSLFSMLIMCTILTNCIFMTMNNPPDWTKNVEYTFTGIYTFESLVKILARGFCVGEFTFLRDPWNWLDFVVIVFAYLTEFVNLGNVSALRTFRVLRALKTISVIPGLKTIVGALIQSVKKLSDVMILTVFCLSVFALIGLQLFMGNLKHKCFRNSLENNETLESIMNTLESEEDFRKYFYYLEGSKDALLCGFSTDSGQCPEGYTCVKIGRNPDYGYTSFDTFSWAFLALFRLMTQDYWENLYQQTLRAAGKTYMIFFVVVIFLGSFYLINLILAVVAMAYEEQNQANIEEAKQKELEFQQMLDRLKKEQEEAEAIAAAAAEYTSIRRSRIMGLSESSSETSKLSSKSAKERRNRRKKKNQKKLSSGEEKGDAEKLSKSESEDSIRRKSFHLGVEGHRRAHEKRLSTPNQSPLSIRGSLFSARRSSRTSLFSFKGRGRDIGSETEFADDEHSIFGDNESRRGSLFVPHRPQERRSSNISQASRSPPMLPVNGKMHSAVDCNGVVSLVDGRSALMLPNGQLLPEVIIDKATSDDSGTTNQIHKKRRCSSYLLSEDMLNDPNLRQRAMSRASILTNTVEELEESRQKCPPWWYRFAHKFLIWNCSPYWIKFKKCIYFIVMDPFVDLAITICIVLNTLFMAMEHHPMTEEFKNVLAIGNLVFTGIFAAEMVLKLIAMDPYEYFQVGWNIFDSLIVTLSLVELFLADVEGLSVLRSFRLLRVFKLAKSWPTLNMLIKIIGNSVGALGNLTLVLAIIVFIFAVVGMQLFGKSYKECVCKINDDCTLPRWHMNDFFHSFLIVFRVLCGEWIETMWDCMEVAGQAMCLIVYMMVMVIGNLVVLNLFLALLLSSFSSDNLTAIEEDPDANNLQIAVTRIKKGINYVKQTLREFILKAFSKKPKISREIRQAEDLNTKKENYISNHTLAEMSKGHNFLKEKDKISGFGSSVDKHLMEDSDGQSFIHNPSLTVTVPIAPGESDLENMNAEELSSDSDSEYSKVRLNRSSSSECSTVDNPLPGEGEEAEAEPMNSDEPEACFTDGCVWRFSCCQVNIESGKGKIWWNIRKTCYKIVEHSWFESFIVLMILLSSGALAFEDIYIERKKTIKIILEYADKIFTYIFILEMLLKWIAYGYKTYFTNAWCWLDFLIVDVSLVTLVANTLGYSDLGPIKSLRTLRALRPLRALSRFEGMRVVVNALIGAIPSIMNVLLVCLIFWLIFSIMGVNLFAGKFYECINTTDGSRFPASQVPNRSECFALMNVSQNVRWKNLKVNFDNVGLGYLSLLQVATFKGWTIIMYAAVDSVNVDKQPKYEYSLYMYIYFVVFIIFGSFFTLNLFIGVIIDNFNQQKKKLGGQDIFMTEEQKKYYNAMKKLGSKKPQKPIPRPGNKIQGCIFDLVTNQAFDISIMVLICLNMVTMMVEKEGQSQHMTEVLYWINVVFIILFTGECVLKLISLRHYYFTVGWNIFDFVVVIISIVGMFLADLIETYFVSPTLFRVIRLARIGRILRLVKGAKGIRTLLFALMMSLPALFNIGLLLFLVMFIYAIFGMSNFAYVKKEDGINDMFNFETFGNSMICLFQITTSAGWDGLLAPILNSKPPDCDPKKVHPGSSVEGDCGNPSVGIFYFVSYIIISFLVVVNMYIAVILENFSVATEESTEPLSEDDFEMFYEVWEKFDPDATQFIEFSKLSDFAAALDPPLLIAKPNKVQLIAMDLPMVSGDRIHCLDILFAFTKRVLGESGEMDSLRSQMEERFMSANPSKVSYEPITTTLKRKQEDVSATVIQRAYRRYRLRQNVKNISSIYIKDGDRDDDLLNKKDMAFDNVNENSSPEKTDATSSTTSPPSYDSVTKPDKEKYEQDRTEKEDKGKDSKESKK

Row | Binder | IC90 of inhibition of CD73 (malachite green phosphate assay) (CD73 protein [1]) | Kd (CD73 protein [2]) | koff (CD73 protein [2]) | kon (CD73 protein [2]) | IC50 of inhibition of CD73, against that of 10A7-BN3 (CD73 protein [3]) | IC50 on HEK293-NaV1.2 cells (NaV1.2) | IC50 on HEK293-NaV1.7 cells, by curve fitting (NaV1.7)
1 | B1 | 25.9 nM | 0.887 nM | 0.000271 s⁻¹ | 305000 M⁻¹ s⁻¹ | – | – | –
2 | B2 | 2.92 nM | 0.888 nM | 0.000191 s⁻¹ | 215000 M⁻¹ s⁻¹ | – | – | –
3 | B3 | – | – | – | – | ~0.2 fold of the IC50 of 10A7-BN3 | – | –
4 | B4 | – | – | – | – | – | 5.02 nM | –
5 | B5 | – | 3.16 nM | 0.000582 s⁻¹ | 185000 M⁻¹ s⁻¹ | – | – | –
6 | B6 | > 100 nM | 1.35 nM | 0.000275 s⁻¹ | 204000 M⁻¹ s⁻¹ | – | – | –
7 | B7 | – | – | – | – | – | 2.73 nM | > 500 nM
